# Data reported in US20220040297A1 (Chugai, published 2022).
# Target: CD3ε homodimer protein (human, UniProt P07766 23-126, limits assumed)
# Test: SPR, immobilized CD3ε homodimer;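 further: biacore T200 surface plasmon resonance at 25 °C, antibody variants flowed as analytes over amine-coupled CD3ε homodimer on a CM4 chip, variant binding amount divided by that of GLS3000 antibody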
# Procedure: Each one-amino acid altered form constructed, expressed, and purified in the paragraph (6-2) was evaluated using Biacore T200 (GE Healthcare Japan Corp.). An appropriate amount of CD3ε homodimer protein was immobilized onto Sensor chip CM4 (GE Healthcare Japan Corp.) by the amine coupling method. Then, the antibody having an appropriate concentration was injected thereto as an analyte and allowed to interact with the CD3ε homodimer protein on the sensor chip. Then, the sensor chip was regenerated by the injection of 10 mmol/L glycine-HCl (pH 1.5). The assay was conducted at 25° C., and HBS-EP+ (GE Healthcare Japan Corp.) was used as a running buffer. […] Each parameter was calculated using Biacore T200 Evaluation Software (GE Healthcare Japan Corp.).
# Specifically, when the amount of the GLS3000-containing antibody bound was defined as X and the amount of the L chain one-amino acid altered form bound was defined as Y, a value of Z (ratio of amounts bound)=Y/X was used.
# Sequence of CD3ε homodimer protein (P07766 23-126 limits assumed): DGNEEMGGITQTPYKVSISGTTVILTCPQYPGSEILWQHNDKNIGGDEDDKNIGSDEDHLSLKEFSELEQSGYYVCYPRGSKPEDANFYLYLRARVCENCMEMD
row,Binder,ratio of amounts bound (vs GLS3000)
1,"GLS3000 N28Y (antibody, name in Kabat numbering, V domains shown, one-arm format as m2) VH: QVQLVESGGGVVQPGRSLRLSCAASGFTFSNAWMHWVRQAPGKGLEWVAQIKAKSNNYATYYAESVKGRFTISRDDSKNSLYLQMNSLKTEDTAVYYCRYVHYGAYYGVDAWGQGTTVTVSS VL: DIVMTQSPLSLPVTPGEPASISCRSSQSLVHSYRNTYLHWYQQKPGQAPRLLIYKVSNRFSGVPDRFSGSGSGTDFTLKISRVEAEDVGVYYCGQGTQVPYTFGQGTKLEIK",0.26
2,"GLS3000 N30S (antibody, name in Kabat numbering, V domains shown, one-arm format as m2) VH: QVQLVESGGGVVQPGRSLRLSCAASGFTFSNAWMHWVRQAPGKGLEWVAQIKAKSNNYATYYAESVKGRFTISRDDSKNSLYLQMNSLKTEDTAVYYCRYVHYGAYYGVDAWGQGTTVTVSS VL: DIVMTQSPLSLPVTPGEPASISCRSSQSLVHSNRSTYLHWYQQKPGQAPRLLIYKVSNRFSGVPDRFSGSGSGTDFTLKISRVEAEDVGVYYCGQGTQVPYTFGQGTKLEIK",0.29
3,"GLS3000 N30H (antibody, name in Kabat numbering, V domains shown, one-arm format as m2) VH: QVQLVESGGGVVQPGRSLRLSCAASGFTFSNAWMHWVRQAPGKGLEWVAQIKAKSNNYATYYAESVKGRFTISRDDSKNSLYLQMNSLKTEDTAVYYCRYVHYGAYYGVDAWGQGTTVTVSS VL: DIVMTQSPLSLPVTPGEPASISCRSSQSLVHSNRHTYLHWYQQKPGQAPRLLIYKVSNRFSGVPDRFSGSGSGTDFTLKISRVEAEDVGVYYCGQGTQVPYTFGQGTKLEIK",0.98
4,"GLS3000 N30D (antibody, name in Kabat numbering, V domains shown, one-arm format as m2) VH: QVQLVESGGGVVQPGRSLRLSCAASGFTFSNAWMHWVRQAPGKGLEWVAQIKAKSNNYATYYAESVKGRFTISRDDSKNSLYLQMNSLKTEDTAVYYCRYVHYGAYYGVDAWGQGTTVTVSS VL: DIVMTQSPLSLPVTPGEPASISCRSSQSLVHSNRDTYLHWYQQKPGQAPRLLIYKVSNRFSGVPDRFSGSGSGTDFTLKISRVEAEDVGVYYCGQGTQVPYTFGQGTKLEIK",0.34
5,"GLS3000 N30F (antibody, name in Kabat numbering, V domains shown, one-arm format as m2) VH: QVQLVESGGGVVQPGRSLRLSCAASGFTFSNAWMHWVRQAPGKGLEWVAQIKAKSNNYATYYAESVKGRFTISRDDSKNSLYLQMNSLKTEDTAVYYCRYVHYGAYYGVDAWGQGTTVTVSS VL: DIVMTQSPLSLPVTPGEPASISCRSSQSLVHSNRFTYLHWYQQKPGQAPRLLIYKVSNRFSGVPDRFSGSGSGTDFTLKISRVEAEDVGVYYCGQGTQVPYTFGQGTKLEIK",1.1
6,"GLS3000 N53A (antibody, name in Kabat numbering, V domains shown, one-arm format as m2) VH: QVQLVESGGGVVQPGRSLRLSCAASGFTFSNAWMHWVRQAPGKGLEWVAQIKAKSNNYATYYAESVKGRFTISRDDSKNSLYLQMNSLKTEDTAVYYCRYVHYGAYYGVDAWGQGTTVTVSS VL: DIVMTQSPLSLPVTPGEPASISCRSSQSLVHSNRNTYLHWYQQKPGQAPRLLIYKVSARFSGVPDRFSGSGSGTDFTLKISRVEAEDVGVYYCGQGTQVPYTFGQGTKLEIK",0.61
7,"GLS3000 N30W (antibody, name in Kabat numbering, V domains shown, one-arm format as m2) VH: QVQLVESGGGVVQPGRSLRLSCAASGFTFSNAWMHWVRQAPGKGLEWVAQIKAKSNNYATYYAESVKGRFTISRDDSKNSLYLQMNSLKTEDTAVYYCRYVHYGAYYGVDAWGQGTTVTVSS VL: DIVMTQSPLSLPVTPGEPASISCRSSQSLVHSNRWTYLHWYQQKPGQAPRLLIYKVSNRFSGVPDRFSGSGSGTDFTLKISRVEAEDVGVYYCGQGTQVPYTFGQGTKLEIK",0.99
8,"GLS3000 N30V (antibody, name in Kabat numbering, V domains shown, one-arm format as m2) VH: QVQLVESGGGVVQPGRSLRLSCAASGFTFSNAWMHWVRQAPGKGLEWVAQIKAKSNNYATYYAESVKGRFTISRDDSKNSLYLQMNSLKTEDTAVYYCRYVHYGAYYGVDAWGQGTTVTVSS VL: DIVMTQSPLSLPVTPGEPASISCRSSQSLVHSNRVTYLHWYQQKPGQAPRLLIYKVSNRFSGVPDRFSGSGSGTDFTLKISRVEAEDVGVYYCGQGTQVPYTFGQGTKLEIK",0.61
9,"GLS3000 N30E (antibody, name in Kabat numbering, V domains shown, one-arm format as m2) VH: QVQLVESGGGVVQPGRSLRLSCAASGFTFSNAWMHWVRQAPGKGLEWVAQIKAKSNNYATYYAESVKGRFTISRDDSKNSLYLQMNSLKTEDTAVYYCRYVHYGAYYGVDAWGQGTTVTVSS VL: DIVMTQSPLSLPVTPGEPASISCRSSQSLVHSNRETYLHWYQQKPGQAPRLLIYKVSNRFSGVPDRFSGSGSGTDFTLKISRVEAEDVGVYYCGQGTQVPYTFGQGTKLEIK",0.44
10,"GLS3000 N30R (antibody, name in Kabat numbering, V domains shown, one-arm format as m2) VH: QVQLVESGGGVVQPGRSLRLSCAASGFTFSNAWMHWVRQAPGKGLEWVAQIKAKSNNYATYYAESVKGRFTISRDDSKNSLYLQMNSLKTEDTAVYYCRYVHYGAYYGVDAWGQGTTVTVSS VL: DIVMTQSPLSLPVTPGEPASISCRSSQSLVHSNRRTYLHWYQQKPGQAPRLLIYKVSNRFSGVPDRFSGSGSGTDFTLKISRVEAEDVGVYYCGQGTQVPYTFGQGTKLEIK",1.86
11,"GLS3000 N30G (antibody, name in Kabat numbering, V domains shown, one-arm format as m2) VH: QVQLVESGGGVVQPGRSLRLSCAASGFTFSNAWMHWVRQAPGKGLEWVAQIKAKSNNYATYYAESVKGRFTISRDDSKNSLYLQMNSLKTEDTAVYYCRYVHYGAYYGVDAWGQGTTVTVSS VL: DIVMTQSPLSLPVTPGEPASISCRSSQSLVHSNRGTYLHWYQQKPGQAPRLLIYKVSNRFSGVPDRFSGSGSGTDFTLKISRVEAEDVGVYYCGQGTQVPYTFGQGTKLEIK",0.47
12,"GLS3000 N30Y (antibody, name in Kabat numbering, V domains shown, one-arm format as m2) VH: QVQLVESGGGVVQPGRSLRLSCAASGFTFSNAWMHWVRQAPGKGLEWVAQIKAKSNNYATYYAESVKGRFTISRDDSKNSLYLQMNSLKTEDTAVYYCRYVHYGAYYGVDAWGQGTTVTVSS VL: DIVMTQSPLSLPVTPGEPASISCRSSQSLVHSNRYTYLHWYQQKPGQAPRLLIYKVSNRFSGVPDRFSGSGSGTDFTLKISRVEAEDVGVYYCGQGTQVPYTFGQGTKLEIK",1.04
13,"GLS3000 N30L (antibody, name in Kabat numbering, V domains shown, one-arm format as m2) VH: QVQLVESGGGVVQPGRSLRLSCAASGFTFSNAWMHWVRQAPGKGLEWVAQIKAKSNNYATYYAESVKGRFTISRDDSKNSLYLQMNSLKTEDTAVYYCRYVHYGAYYGVDAWGQGTTVTVSS VL: DIVMTQSPLSLPVTPGEPASISCRSSQSLVHSNRLTYLHWYQQKPGQAPRLLIYKVSNRFSGVPDRFSGSGSGTDFTLKISRVEAEDVGVYYCGQGTQVPYTFGQGTKLEIK",0.7
14,"GLS3000 N30A (antibody, name in Kabat numbering, V domains shown, one-arm format as m2) VH: QVQLVESGGGVVQPGRSLRLSCAASGFTFSNAWMHWVRQAPGKGLEWVAQIKAKSNNYATYYAESVKGRFTISRDDSKNSLYLQMNSLKTEDTAVYYCRYVHYGAYYGVDAWGQGTTVTVSS VL: DIVMTQSPLSLPVTPGEPASISCRSSQSLVHSNRATYLHWYQQKPGQAPRLLIYKVSNRFSGVPDRFSGSGSGTDFTLKISRVEAEDVGVYYCGQGTQVPYTFGQGTKLEIK",0.5
15,"GLS3000 N30P (antibody, name in Kabat numbering, V domains shown, one-arm format as m2) VH: QVQLVESGGGVVQPGRSLRLSCAASGFTFSNAWMHWVRQAPGKGLEWVAQIKAKSNNYATYYAESVKGRFTISRDDSKNSLYLQMNSLKTEDTAVYYCRYVHYGAYYGVDAWGQGTTVTVSS VL: DIVMTQSPLSLPVTPGEPASISCRSSQSLVHSNRPTYLHWYQQKPGQAPRLLIYKVSNRFSGVPDRFSGSGSGTDFTLKISRVEAEDVGVYYCGQGTQVPYTFGQGTKLEIK",0.31
16,"GLS3000 N30K (antibody, name in Kabat numbering, V domains shown, one-arm format as m2) VH: QVQLVESGGGVVQPGRSLRLSCAASGFTFSNAWMHWVRQAPGKGLEWVAQIKAKSNNYATYYAESVKGRFTISRDDSKNSLYLQMNSLKTEDTAVYYCRYVHYGAYYGVDAWGQGTTVTVSS VL: DIVMTQSPLSLPVTPGEPASISCRSSQSLVHSNRKTYLHWYQQKPGQAPRLLIYKVSNRFSGVPDRFSGSGSGTDFTLKISRVEAEDVGVYYCGQGTQVPYTFGQGTKLEIK",1.65
17,"GLS3000 N30I (antibody, name in Kabat numbering, V domains shown, one-arm format as m2) VH: QVQLVESGGGVVQPGRSLRLSCAASGFTFSNAWMHWVRQAPGKGLEWVAQIKAKSNNYATYYAESVKGRFTISRDDSKNSLYLQMNSLKTEDTAVYYCRYVHYGAYYGVDAWGQGTTVTVSS VL: DIVMTQSPLSLPVTPGEPASISCRSSQSLVHSNRITYLHWYQQKPGQAPRLLIYKVSNRFSGVPDRFSGSGSGTDFTLKISRVEAEDVGVYYCGQGTQVPYTFGQGTKLEIK",0.61
18,"GLS3000 N30T (antibody, name in Kabat numbering, V domains shown, one-arm format as m2) VH: QVQLVESGGGVVQPGRSLRLSCAASGFTFSNAWMHWVRQAPGKGLEWVAQIKAKSNNYATYYAESVKGRFTISRDDSKNSLYLQMNSLKTEDTAVYYCRYVHYGAYYGVDAWGQGTTVTVSS VL: DIVMTQSPLSLPVTPGEPASISCRSSQSLVHSNRTTYLHWYQQKPGQAPRLLIYKVSNRFSGVPDRFSGSGSGTDFTLKISRVEAEDVGVYYCGQGTQVPYTFGQGTKLEIK",0.29
19,"GLS3000 N30M (antibody, name in Kabat numbering, V domains shown, one-arm format as m2) VH: QVQLVESGGGVVQPGRSLRLSCAASGFTFSNAWMHWVRQAPGKGLEWVAQIKAKSNNYATYYAESVKGRFTISRDDSKNSLYLQMNSLKTEDTAVYYCRYVHYGAYYGVDAWGQGTTVTVSS VL: DIVMTQSPLSLPVTPGEPASISCRSSQSLVHSNRMTYLHWYQQKPGQAPRLLIYKVSNRFSGVPDRFSGSGSGTDFTLKISRVEAEDVGVYYCGQGTQVPYTFGQGTKLEIK",0.8
20,"GLS3000 N30Q (antibody, name in Kabat numbering, V domains shown, one-arm format as m2) VH: QVQLVESGGGVVQPGRSLRLSCAASGFTFSNAWMHWVRQAPGKGLEWVAQIKAKSNNYATYYAESVKGRFTISRDDSKNSLYLQMNSLKTEDTAVYYCRYVHYGAYYGVDAWGQGTTVTVSS VL: DIVMTQSPLSLPVTPGEPASISCRSSQSLVHSNRQTYLHWYQQKPGQAPRLLIYKVSNRFSGVPDRFSGSGSGTDFTLKISRVEAEDVGVYYCGQGTQVPYTFGQGTKLEIK",0.87
